Literature values, collected in PMC12818570.

Biological target: His57 (UniProt position 57, ILPVTHTEISP)
Experiment: electrophysiology (solid-supported membrane electrophysiology, SSME, on isolated lysosomes)
Conditions: 90 mM NaCl + 50 mM NaCl or KCl, 5 mM MgCl2; 30 mM HEPES, 30 mM MES, titrated with HCl or NaOH; channel in lysosomal membrane, pH equilibrated symmetrically on both sides, no applied voltage

## Transmembrane protein 175 (TMEM175), endosomal/lysosomal cation channel (Homo sapiens)
  pKa: 7.0 ± 0.1
